Assay results published in patent publication US20230125561A1 (PNEUMAGEN, published 2023).

Experiments:
[1] = target: T1, recombinant human ACE2 (Angiotensin-converting enzyme 2) (human, UniProt Q9BYF1 18-740); assay: ELISA: ACE2 immobilised at 1 µg/mL, Neumifil titrated, detected with rabbit anti-Neumifil and HRP anti-rabbit IgG, 4PL fit
T1 construct: Bought recombinant protein

[2] = target: T2, SARS-CoV-2 Spike S1 protein, Wuhan (Wuhan-Hu-1, Dec 2019 isolate) (SARS-CoV-2, UniProt P0DTC2 16-685); assay: ELISA: Spike S1 immobilised at 1 µg/mL, Neumifil titrated, detected with rabbit anti-Neumifil and HRP anti-rabbit IgG, 4PL fit
T2 construct: domain: S1; also called original Spike protein

T1 sequence (Q9BYF1 18-740 limits assumed): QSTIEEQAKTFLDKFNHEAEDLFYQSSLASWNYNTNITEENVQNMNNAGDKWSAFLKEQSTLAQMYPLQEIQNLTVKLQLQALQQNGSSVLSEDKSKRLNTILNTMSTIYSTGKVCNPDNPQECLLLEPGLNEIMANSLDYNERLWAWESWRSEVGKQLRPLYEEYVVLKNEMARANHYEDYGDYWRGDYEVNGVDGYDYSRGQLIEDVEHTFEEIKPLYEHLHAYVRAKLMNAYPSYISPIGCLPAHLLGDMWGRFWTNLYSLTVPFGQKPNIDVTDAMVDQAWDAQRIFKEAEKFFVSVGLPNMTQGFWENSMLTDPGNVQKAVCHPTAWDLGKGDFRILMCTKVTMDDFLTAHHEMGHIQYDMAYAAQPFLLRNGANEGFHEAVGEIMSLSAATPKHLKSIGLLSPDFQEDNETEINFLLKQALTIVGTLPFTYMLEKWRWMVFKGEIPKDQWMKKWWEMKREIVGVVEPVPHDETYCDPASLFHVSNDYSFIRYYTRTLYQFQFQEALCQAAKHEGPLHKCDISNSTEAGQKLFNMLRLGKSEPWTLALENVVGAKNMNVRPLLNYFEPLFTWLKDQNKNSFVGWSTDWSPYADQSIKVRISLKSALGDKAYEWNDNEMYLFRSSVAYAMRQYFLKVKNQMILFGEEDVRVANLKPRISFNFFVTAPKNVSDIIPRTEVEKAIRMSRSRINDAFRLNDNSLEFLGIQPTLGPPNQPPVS

B1: Neumifil (HEX17: trimeric (hexavalent) form based on S. pneumoniae CBM40) (designed binder)
chain: GAMVIEKEDVETNASNGQRVDLSSELDKLKKLENATVHMEFKPDPKAPAFYNLFSVSSATKKDEYFTMAVYNNTATLEGRGSDGKQFYNNYNDAPLKVKPGQWNSVTFTVEKPTAELPKGRARLYVNGGLSRTSLRSGNFIKDMPDVTHVQIGATKRANNTVWGSNLQIRNLTVYNRALTPEEVQKRSGGGSGVIEKEDVETNASNGQRVDLSSELDKLKKLENATVHMEFKPDPKAPAFYNLFSVSSATKKDEYFTMAVYNNTATLEGRGSDGKQFYNNYNDAPLKVKPGQWNSVTFTVEKPTAELPKGRARLYVNGGLSRTSLRSGNFIKDMPDVTHVQIGATKRANNTVWGSNLQIRNLTVYNRALTPEEVQKRSGGSLGVPDFESDWFDVSSNSLYTLSHGLQRSPRRVVVEFARSSSPSTWNIVMPSYFNDGGHKGSGAQVEVGSLNIKLGTGAAVWGTGYFGGIDNSATTRFATGYYRVRAWI
notes: also called CBM2
B1 was tested, and the EC50 [1] was 0.235 µg/mL and the EC50 [2] was 0.174 µg/mL.
